Assay results: PMC7318764, “Shrimp miR-965 induced the human melanoma stem-like cell apoptosis and inhibited their stemness by disrupting the MCL-1-ER stress-XBP1 feedback loop in a cross-species manner”

Biological target: Ago2 (human, UniProt Q9UKV8 1-859)
Assay: EMSA; Ago2 12.5, 25, 50, 100 mM (so in the source) with 40 mM miR-965; 1 mM MgCl2; shifted band increases with Ago2; 0.1 M KCl, 1 mM DTT, 1 mM MgCl2, 10 mM HEPES pH 7.6, 30 min at 37 C; 1% agarose gel, ethidium bromide then Coomassie stain
Conditions: protein: recombinant; single strand printed

Chain of Ago2 (Q9UKV8 whole entry): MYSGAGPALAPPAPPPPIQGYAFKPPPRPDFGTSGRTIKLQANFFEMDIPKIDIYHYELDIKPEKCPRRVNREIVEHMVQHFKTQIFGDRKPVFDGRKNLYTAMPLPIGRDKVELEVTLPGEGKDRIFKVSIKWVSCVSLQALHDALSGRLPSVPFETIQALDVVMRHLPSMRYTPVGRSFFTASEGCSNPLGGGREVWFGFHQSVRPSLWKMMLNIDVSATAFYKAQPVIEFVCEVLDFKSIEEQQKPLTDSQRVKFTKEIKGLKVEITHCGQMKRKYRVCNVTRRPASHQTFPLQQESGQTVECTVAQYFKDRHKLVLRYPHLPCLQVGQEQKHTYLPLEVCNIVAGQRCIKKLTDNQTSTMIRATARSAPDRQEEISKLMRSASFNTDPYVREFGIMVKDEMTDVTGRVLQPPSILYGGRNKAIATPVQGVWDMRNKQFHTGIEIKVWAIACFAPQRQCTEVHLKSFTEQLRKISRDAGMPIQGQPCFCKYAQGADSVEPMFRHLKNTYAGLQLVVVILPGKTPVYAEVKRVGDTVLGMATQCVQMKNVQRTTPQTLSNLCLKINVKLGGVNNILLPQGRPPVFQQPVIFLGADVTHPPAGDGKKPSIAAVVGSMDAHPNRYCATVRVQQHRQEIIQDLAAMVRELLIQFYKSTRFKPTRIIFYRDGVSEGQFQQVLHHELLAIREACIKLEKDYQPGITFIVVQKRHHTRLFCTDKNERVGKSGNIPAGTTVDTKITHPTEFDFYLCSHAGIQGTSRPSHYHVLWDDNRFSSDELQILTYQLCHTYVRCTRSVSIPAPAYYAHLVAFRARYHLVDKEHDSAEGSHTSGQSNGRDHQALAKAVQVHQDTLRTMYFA

## UAAGCGUAUGGCUUUUCCCCUC (ssRNA) [shrimp miR-965]
  binding result: binds
